Measured values from a protein production outcome set (Wang et al. 2014).

Assay: label from the status in PepcDB records

Sequence | protein production
MSDSSPTINFINFNQTGTCISLGTSKGFKIFNCEPFGKFYSEDSGGYAIVEMLFSTSLLALVGIGDQPALSPRRLRIINTKKHSIICEVTFPTSILSVKMNKSRLVVLLQEQIYIYDINTMRLLHTIETNPNPRGLMAMSPSVANSYLVYPSPPKVINSEIKAHATTNNITLSVGGNTETSFKRDQQDAGHSDISDLDQYSSFTKRDDADPTSSNGGNSSIIKNGDVIVFNLETLQPTMVIEAHKGEIAAMAISFDGTLMATASDKGTIIRVFDIETGDKIYQFRRGTYATRIYSISFSEDSQYLAVTGSSKTVHIFKLGHSMSNNKLDSDDSNMEEAAADDSSLDTTSIDALSDEENPTRLAREPYVDASRKTMGRMIRYSSQKLSRRAARTLGQIFPIKVTSLLESSRHFASLKLPVETNSHVMTISSIGSPIDIDTSEYPELFETGNSASTESYHEPVMKMVPIRVVSSDGYLYNFVMDPERGGDCLILSQYSILMD | failed
MSDVPHLRFPEFSGEWEEHTLSEYLEFKNGLNPDAKRIGSGLPFISVMDILSEGVINYDNIRGKVNATEKEIECFGVKDGDLLFQRSSETLEDVGRANVYMDNRTAIYGGFVIRGRKIGNYDPLFFKYLLATPLARKRTCRMGAGAQHFNIGQEGLSKISLYFPSIEEQRKIAEFLSLIDERIATQNKIIEDLKKLKSAISLNVLHSDKWEQFKIKDIAQIGRGRVISSIEIGQQKSPTYPVYSSQTSNDGIMGYLDDYMFEGEYISWTTDGANAGTVFYRNGKFNCTNVCGLLKLRKEFDTHFVSLVLAEATKKYVSINLANPKLMNNTMGNIQIRLPKLEEQKRISIVFRVLQRLWTVHNSLLTEYTKQEQYLLSQMFILEHHHHHH | failed
MSDWTDGYVAEIDYTHGFYRELTPAHLRFCLLSRGLRAPEEDAGVSYCELGFGQGVTLNIVAATHPLASVWGTDFNPSHAAAARQLSLDGGTANTAFGDDSFEEFLAREDLPTFDFIVLHGIYSWISAENRAVIGRFLRRRLKVGGVVYISYNTLPGWAAIMPLRALMIDHAKAERAGMTERVDKALAFARTLAEGKAGYFTANPAVAPRLEKMATMSRNYLAHEYFNRDWTPLYHADVVRELTAAKLSFAASAHVTDLIDVVALSAPGREMLAAVNDPLFRETLRDYIVNQQFRRDIFTRGALRLTPLEQIEGLRAQRLALIVPRATIPEKATFPIGTTDLKPEIYGPFFDRLDKGPITLADLAAAEPALAPLPLATLHQAALVAISQGWVAPCPEAAGEGARRKATKRFNAAVLERARRSADLTVLASPVLGGGLGVDRIQQLFLLARAEKHPDPASFVWGILSSQGQRLVKEGKPLEDVDQNMAELRLRAQTFTDSFLPLYDRLGIV | failed
MSEAIVTIVVVPRERFSCTQASLESIYEHTKIPFKLIYVDGNSPTKVRKYLQKQAQEKNFQLIRTDYYLSPNHARNIGLSHVDTKYLVFLDNDVIVSPGWLQALVNCAETTGATVVGPLMCEKEPIHERIHFAGGESHIVIDVKGRRHLREKMYKQGHQVSELRSQLQQTETELAEFHCTLIRREIFEQIGYLDEEMLNTKEHLDFCMNVIQAGGKVYFEPDSLVTYVPGPPLEWSDLHFYMLRWSDAWTLASLQRIRAKWNLSEDGYFQTKYKKLGVRRVATIIKPFVRQVSFGNENKPLKRFLKNLDRKLNRFLTDRYTEMLPQRKLELPIIKKEISSVKEFTQV | failed
MSEDELYELLKTKYGFDEFRPGQLAVIQKLLAGQDVLAVLPTGTGKSLIYQLVGTALPGLVVVVSPLISLMQDQVARLNYQGEKQVAALTSQLDYGARQYLLNHLGQLKFLFISPEMLGQDIIQTALMQVQLALLVIDEAHCISTWGPDFRPDYRRLGQIRQRLQAPTTLMLTATATQRVRQDILTQLTVPDAQQILYSVNRPNIYLAVEQVNDEASKRATLQHLVTSARGPVIVYFTSKRQTDLIAEWLRTTTTLRVAAYHAGLATDDRFKIQQQFMAGQLDVICATSAFGMGINKADIRLVIHYHLPTTLADYVQEIGRAGRDGQQAMAIMLYAPGDENLVRNLNELTAATPNEIQQDYSRYQAQQPPTDDRSKVLQSYWLQGTPPTTVATIFADRQVAKERELRTLMSYVQTTTCHRTVMLTYFGEPAVTHTDQCCQLAAEPLPLAALGLMATHDEPTATIMSWDQHLAQLFLPNS | failed
MSEDLMDLSPEEGIERFLRHREPSVRESTMRNAKTRLRFFNEWCEERDIENLNNLTGRDLADFVAWRRGDIAALTLQKQLSTIREALRYWADIEGVDDGLAEKVHAPELPDGAESREVHLSADRAHQILDFLHDYRYASRDHVVFLILWKTAMRRSALRSLDVDDLRPDDYALVLEHRIDEGTKLKNGEDGERWVYLGPSDYQVVDDYLDNPDRYERTDDYGRKPLITSQHGRPAGDTIYKWVNKLTQPCVLNGCPHDADPSDPSTCEALGSRAAHSKCPSSRSPHGLRRGSITYHLNSDVSPEIVSERCDVSLEVLYEHYDVRTNQEKMAVRKKQLERI | failed
MSEDNFDDEFDGSLPSGPRHPMARRFRGYLPVVVDVETGGFNSATDALLEIAATTVGMDEKGFLFPEHTYFFRIEPFEGANIEPAALEFTGIKLDHPLRMAVQEEAALTEIFRGIRKALKANGCKRAILVGHNSSFDLGFLNAAVARTGIKRNPFHPFSSFDTATLAGLAYGQTVLAKACQAAGMEFDNREAHSARYDTEKTAELFCGIVNRWKEMGGWMDDDD | not failed
MSEDRTGHQGISGPATRAIHAGYRPDPATGAVNVPIYASSTFAQDGVGGLRGGFEYARTGNPTRAALEASLAAVEEGAFARAFSSGMAATDCALRAMLRPGDHVVIPDDAYGGTFRLIDKVFTRWDVQYTPVRLADLDAVGAAITPRTRLIWVETPTNPLLSIADITAIAELGTDRSAKVLVDNTFASPALQQPLRLGADVVLHSTTKYIGGHSDVVGGALVTNDEELDEEFAFLQNGAGAVPGPFDAYLTMRGLKTLVLRMQRHSENACAVAEFLADHPSVSSVLYPGLPSHPGHEIAARQMRGFGGMVSVRMRAGRRAAQDLCAKTRVFILAESLGGVESLIEHPSAMTHASTAGSQLEVPDDLVRLSVGIEDIADLLGDLEQALG | not failed
MSEFEGWIKWLEPVFLLWKPEDPGYERPAYRDWTKEEDEPKYSPEKELALLDKQILASDGFDIDFTHFRCVFNYHLAYLDSHEFVDEPETTRDLLERLSRKALDDYNQESVVKANFHFCCAIMFLITFEVVDPYDNLIKLFQTRVRHAEDIVTEYVFCRPKPNQGVECIGVKNNDGKDVQTNVKEQEIPCMYGWFLRVITITFTLQIGVGASICHKE | failed
MSEFIMNNLEQTARRWLEERGVTVEKIAELVYYLQSKYHPDLTMEECIENVNRVISKREVQNAILTGIQLDKLAEDGRLDEPLQSIIRRDEGLYGVDEILALSIVNVYGSIGFTNYGYIDKQKPGILQYLNDKSTGKCNTFLDDIVGAIAAAASSRLAHRAANAE | not failed
MSEFMQRFADLRDRKAYAEIVDALPYVKLMGTSMAEDEQGELRFELPFLQRNVGNTTLPALHGGLIGGFMESAAMIHLMWNRESLEAPKIVDFSLDYLRPGRPQTLFAQCEITKQGKRVAHVLIEAWQDDRSKPVAVARAHFLLTNLEHHHHHH | not failed
MSEFRLTQISDTHLGRRFPGLIANFHRVCEHIDADRPDLVINTGDVSFDGPTSRDDVVFAKGLHDALPVTCRYLPGNHDIGDNPTAIGPAPKPPVSEAYRQQFRDIIGEDHWSFEAAGWCFIGLNTLVMNSGLAFEAAQFDWLTQEIARTNGRPVALFLHKPVFLNLPDDPETPETSIRYVPQPARARLIEMFARVDLRLIASGHVHQRRDFTFRHTRHVWAPSVGFKINDQRQDRIAIKETGLVEYRFRGDSLEVRHLRAAGQIDIDIEEVLLQMGGEH | failed
MSEFTRVFNYKIKLIIAISLFFTQLISANASVEVNISVEQPEHHLANVELKFEQVNESKVNFYLPTWRTGRYETLNLANGIREFIAQDSQGNVLSWHKIDKNTWQVSDAKNKKITLTYQVYANQLAKRTRHIDDSHAFLDSSAVVMYSQASRSSEHIVQLSVPKLWKSFSGLESGNNSHQFIAHDYDQLVDSPIESGINEHYQFSVDNRQYELVIWGEGNYDSAKMVKDLQILVKQSKHVWQGYPFKRYVFMVHATSGARGATEHVNSTIIQRSRFKFSTRKDYLSFIAVAAHEFVHTWNVKQYRPKGIVPYDYQQENYSNLLWLVEGSTSYLQYQLLLRGNLMTTDEFFTALAKRITAHAHKPGKESQSVAQASFDAWISEGGDYGNNHSVNIYSEGFLASWLLDFDILAKTALSKSYRNAHNQLYQQHRLPKGYDEQDVLSILEQITGDDYQVWWQKNIQGTTKINFNRLLAKAGLKMSYAKNVKDKSSEQSKVWTGLKTKLDNHDLIVSSVEKNSPAWDAGLTTEDVIVAIDGLRLLDNELDNRLKDFKPKQTITVTYFRRDKLITSRLKLAAIPKNKLKIIPIAKASVEQKAFFKAWMGVDFPEKK | failed
MSEHFLQQKYNSISENPIYLFWFLQFCFWSFVSLISLVSLTLWYVQIDVAHLNHTFLQSFVGVVFSLPLYWAFMRCWNTSIFIRVFVSITSVLLISFIWTVIRVELYIRLTGTDEIWTQFGGWYFSSIFIYFCWTGFFHGIRYYQLLQFEHEIMLKKEAEAKTEQLKRLSAQTVARDAKIKMLRYQLNPHFLCNTLNAINSLIECELPEKAQLMTVQLSKFLRYSLDNDPDTKIALEFELKALELYLEIEKTRFGERLQLDFQISEAAKAAFIPSLLLQPLIENSMKHVIAQNEEGGVISLSADVIDNMLVLELSDTGSAKRVDINKIKSKTGRGVGLRNIDERLKALYTDNYVYNLNVRPSGGLKTTIKLPLDSQGEPDIVNQAYNSMKVC | failed
MSEKPWVSTQPLVTKRGLPLNIDRDIAYRPASAVSLSEVAQFITRETGLPVVVAPDALNPSILSSRPGNSGAAAAPPAVTMSNPDNLAALMPTGLAGSLPSGARSLESELLSGTPGLISGIKFSGPVSALLNQVTSRLGLSWHYDPQLQGARITYFDTRTFDVWAFGDDQVIESVVKSGLITSTGSGSNGSGGTSSGTGASGDSGSNQSTTVQIKTSLLSDIENNVKAMLSTQPAGRIFLSRSTGTLTVSDRPEVLNRIASYLQSTNRNITRQVLFNVKIFEVNFTDRDQTAVNWKAVYKSVSGRWGLSLANKVAGISTDAISGSVSILDTSSSPWAGSSAVIQALSEQGRISDVRSPSITTLNLQPAPIQIGNVKSYVASSSTTTTASVGSSTSLTPATITSGFNMMLLPKIIDRDNMLLMISISMSSKPTFTTFTSNGSSVQTADFDTKNAAPKVLLRSGQTLVLTGFEENTENADKTGVGDASFFGLGGSRTRSSLEHHHHHH | failed
MSELARIVPDSEKISHILIEQGRKITFYSYFSNTFVLGIIAYILVDNTVALDKNSLFFVKTLPFRKKDISLSFMLFKFVIMILLYELVMIISTPAIKLVTTVPIEYVIFFIVQHLFYLVVIGVIEFIHCLFTFFLKRRVKQINSLKVIGDSLLMIFATFYFFDFRYGLELFLANQLWSISYMIPITFFLIVVCLMLISIGLLRLISILENQMSQHSKYIYIPFLNKVIFRYKANWYFISFTTVVMLVIFFQSGLRTMLFILTTVMAFSGVLLLSYGDITADFRKQYDLLRIKIRNEWLSQLLLVIMLAMPLLLLCFWGFGELAQLITALSLSLVAIILGYVFPKSQGSLNETTSLLLLFIVFVLVSLLTNRSFGWLILIVLVLLHLLVIKKVRNEKE | failed
MSELDVEAVDDINAPAGIDAAEYVLYGGKGGVGKTTCAAATALASARDDTATLVVSTDPAHSLSDTLDADIPATPTRIREDIPLYAAEIDPEAAVGEGPLGVEEDALGGVGELLGGDGMFGGGAGGAAGAGQAEDPIGGEEGLLGGSMPGADEAAALRLLLDYVDDDRFDRVVIDTAPTGHTLRLLELPETMDSMVGKILQLRERFSGMMDNLTGMFGDDQDVDAEAGIEDLQELSDRIEHLRGILQDPQRTDFRIVMVPEELSVVESERLLAQLGEFNIPVSTVVVNRVMQDPSEVLGEDVDIAGPNHADCEFCARRWQVQQDALARSQDMFRGHDVRRVPLFAEEVRGERLLSVVAACLD | failed
